# Key:
# Assay in all cases: cell-based or functional assay
# GAL4/Arnt 128-774 = GAL4/Arnt 128-774 (UniProt P04386)
# GAL4/Arnt 128-603 = GAL4/Arnt 128-603 (UniProt P04386)
# [1] = molecular target: HIF-1α (wild-type human HIF-1α expressed from pCMV4/HIF-1α) (human) (UniProt Q16665)
# GAL4/HIF 71-826 (human) = molecular target: GAL4/HIF 71-826 (human)
# GAL4/HIF 526-826 (human) = molecular target: GAL4/HIF 526-826 (human)
# GAL4/HIF 1-813 (human) = molecular target: GAL4/HIF 1-813 (human)
# GAL4/HIF 531-584 (human) = molecular target: GAL4/HIF 531-584 (human)
# GAL4/HIF 776-826 (human) = molecular target: GAL4/HIF 776-826 (human)
# [2] = molecular target: GFP-HIF-1α (in-frame fusion of green fluorescent protein with full-length HIF-1α) (Aequeora victoria; human) [GFP: P42212]
# HIF-1α (wild-type human HIF-1α expressed from pCMV4/HIF-1α) (human), sequence (Q16665 whole entry, the tested form may be a part): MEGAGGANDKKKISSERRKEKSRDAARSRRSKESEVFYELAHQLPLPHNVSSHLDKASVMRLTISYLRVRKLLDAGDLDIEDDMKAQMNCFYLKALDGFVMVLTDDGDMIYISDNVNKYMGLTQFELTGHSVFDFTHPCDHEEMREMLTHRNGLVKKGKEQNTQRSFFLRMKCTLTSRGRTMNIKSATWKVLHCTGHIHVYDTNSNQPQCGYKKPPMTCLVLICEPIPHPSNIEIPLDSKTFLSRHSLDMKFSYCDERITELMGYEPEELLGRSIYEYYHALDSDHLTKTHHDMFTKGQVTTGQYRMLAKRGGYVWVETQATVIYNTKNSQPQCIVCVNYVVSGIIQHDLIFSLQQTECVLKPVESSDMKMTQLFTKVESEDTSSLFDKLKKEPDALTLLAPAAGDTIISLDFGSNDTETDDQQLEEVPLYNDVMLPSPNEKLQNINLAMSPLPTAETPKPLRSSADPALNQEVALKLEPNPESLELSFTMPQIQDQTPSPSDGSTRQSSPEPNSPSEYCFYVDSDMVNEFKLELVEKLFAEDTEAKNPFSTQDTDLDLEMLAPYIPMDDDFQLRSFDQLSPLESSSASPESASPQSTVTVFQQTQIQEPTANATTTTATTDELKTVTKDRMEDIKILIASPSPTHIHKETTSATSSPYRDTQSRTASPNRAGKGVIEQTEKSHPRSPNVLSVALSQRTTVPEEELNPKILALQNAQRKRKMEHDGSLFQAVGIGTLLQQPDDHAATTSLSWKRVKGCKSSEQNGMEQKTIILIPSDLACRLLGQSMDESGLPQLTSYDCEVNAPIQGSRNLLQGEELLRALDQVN
substance,measurement,setting,value
HIF-1α (wild-type human HIF-1α expressed from pCMV4/HIF-1α) (from UniProt Q16665 1-826),"GAL4-responsive reporter gene activity, COS7, normoxia, against the GAL4 fusion protein alone",GAL4/Arnt 128-774,4 fold
same,"GAL4-responsive reporter gene activity, COS7, normoxia",GAL4/Arnt 128-603,5 fold
TIF2 (transcriptional coactivator TIF2) (from UniProt Q15596 1-1464),"pT81/HRE-luc reporter gene activity, COS7, hypoxia over the levels at normoxia",[1],12 fold
"CBP (CREB binding protein, full-length mouse CBP expressed from pRc/RSV-mCBP-HA) (from UniProt P45481 1-2441)","luciferase activity, GAL4-responsive reporter, COS7, hypoxia with CBP against hypoxia without exogenous coactivators",GAL4/HIF 71-826 (human),30 fold
same,"GAL4-responsive reporter gene activity, COS7, transient expression of CBP",GAL4/HIF 526-826 (human),7 to 9 fold
same,"GAL4-responsive reporter gene activity, COS7, hypoxia, overexpression of CBP",GAL4/HIF 1-813 (human),14 fold
same,"GAL4-responsive reporter gene activity, COS7, hypoxic cells, in the presence of CBP",GAL4/HIF 531-584 (human),11 fold
same,"GAL4-responsive reporter gene activity, COS7, in the presence of CBP",GAL4/HIF 776-826 (human),29 fold
same,"HRE-dependent reporter gene activity, COS7, hypoxia with CBP over the levels at normoxia",[2],15 fold
same,"HRE-dependent reporter gene activity, COS7, hypoxia, enhancement by coexpressed CBP",[2],3 fold
same,"pT81/HRE-luc reporter gene activity, COS7 coexpressing HIF-1α and Arnt, hypoxia, against hypoxia without exogenous coactivator",[1],2 to 3 fold
Ref-1 (nuclear redox regulator Ref-1 expressed from pCMV5/Ref-1) (from UniProt P27695 1-318) (enzyme),"hypoxia-dependent activation of a GAL4-responsive reporter, COS7, Ref-1 coexpressed in the presence of CBP and SRC-1",GAL4/HIF 531-584 (human),12 fold
same,"hypoxia-dependent activation of a GAL4-responsive reporter, COS7, Ref-1 coexpressed in the presence of CBP and SRC-1",GAL4/HIF 776-826 (human),53 fold
